Biological target: T1, Caveolin-1 1-178 (UniProt Q03135)
T1 chain: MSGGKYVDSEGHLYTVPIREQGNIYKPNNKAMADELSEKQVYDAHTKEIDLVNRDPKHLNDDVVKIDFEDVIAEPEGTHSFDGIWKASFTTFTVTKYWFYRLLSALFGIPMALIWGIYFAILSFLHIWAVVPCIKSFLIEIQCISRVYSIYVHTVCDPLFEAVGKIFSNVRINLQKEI
Assay: given as Ka

B1: PrP (protein)
chain: not shown
Kd: ~1.18 nM

Reference: publication PMC1559926 (2006)
